This passage reports Ki results from patent US20060177432A1 (Novartis, published 2006).

One assay deals with human α-thrombin (human, UniProt P00734 328-622). Description: chromogenic substrate hydrolysis at varied substrate and PEBP-H6 concentrations, fitted to the equation for a competitive inhibitor. The method, then:
(§1) Six different serine proteases were diluted in enzyme buffer (67 mM Tris, pH 8.0, 133 mM NaCl, 0.13% PEG-6000) and used in protease activity assays with the following final amounts: thrombin, trypsin and chymotrypsin, 0.005 pmol; t-PA and neuropsin, 0.5 pmol; and pancreatic elastase, 4 pmol. Human α-thrombin was prepared and according to Stone et al. (Stone, S. R. and Hofsteenge, J. (1986) Biochemistry 25, 46224628); all other proteases are commercially available (e.g., Sigma, Fluka). […] The pre-incubation was carried out in a 96-well plate for 30 min at 37° C. After addition of 10 μl chromogenic protease substrate (H-D-Ile-Pro-Arg-para-nitroanilide, Chromogenix, 1.25 mg/ml in H₂O for all proteases other than chymotrypsin; or N-Succinyl-Ala-Ala-Pro-Phe-para-nitroanilide, Sigma, 2.3 mg/ml in H₂O for chymotrypsin), any remaining amidolytic activity was determined by measuring the rate of hydrolysis of the chromogenic substrate at 405 nm over 30 min using a THERMOmax microplate reader (Molecular Devices). […]
(§2) To determine the inhibition constants, the rates for the hydrolysis of the chromogenic substrates were measured as described above at fixed enzyme concentrations and substrate concentrations ranging from 3.5 μM to 216 μM and PEBP-H6 concentrations between 0 and 2.9 μM. […]

The target of a further assay is chymotrypsin. The assay is described as above. As to the method:
as §1, §2

B1: PEBP-H6 (mouse PEBP with a stretch of six histidine residues fused to the carboxy-terminus) (other)
chain: AADISQWAGPLCLQEVDEPPQHALRVDYAGVTVDELGKVLTPTQVMNRPSSISWDGLDPGKLYTLVLTDPDAPSRKDPKFREWHHFLVVNMKGNDISSGTVLSDYVGSGPPSGTGLHRYVWLVYEQEQPLSCDEPILSNKSGDNRGKFKVETFRKKYNLGAPVAGTCYQAEWDDYVPKLYEQLSGKHHHHHH
notes: Expressed in Rat-1 cells and purified on Ni-NTA
Consider B1, for which the Ki with human α-thrombin came to 380 nM; with chymotrypsin, 1800 nM.
